Laboratory results: the supplement of paper PMC9112550, “Optimization of the antimicrobial peptide Bac7 by deep mutational scanning” (BMC Biology, 2022)

System: Escherichia coli TOP10
Test: shrunken log2 fold change of peptide-encoding DNA abundance (4.5 h post-induction vs induction); higher = less antimicrobial activity (less host growth inhibition)
Details: time post-induction: 4.5 h; library: site-saturation at positions 5, 18, 19, 20
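Also: peptides expressed intracellularly from a pBAD plasmid library in pooled LB shake-flask culture, induced with 0.3% L-arabinose, DNA abundance read by NGS, three biological replicates, DESeq2 with apeglm shrinkage.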

Sequence	shrunken log2 fold change
RRIRKRPPRLPRPRPRPRAIPRP	0.304
RRIRFRPPRLPRPRPRPFQPPRP	-0.334
RRIRTRPPRLPRPRPRPTYSPRP	-1.56
RRIRFRPPRLPRPRPRPWVVPRP	0.0143
RRIRCRPPRLPRPRPRPHNSPRP	-0.273
RRIRNRPPRLPRPRPRPYKIPRP	-0.0214
RRIRDRPPRLPRPRPRPTYYPRP	-0.204
RRIRQRPPRLPRPRPRPCTVPRP	-0.521
RRIRFRPPRLPRPRPRPLKAPRP	0.693
RRIRNRPPRLPRPRPRPLDMPRP	-0.0766
RRIRVRPPRLPRPRPRPPRHPRP	0.252
RRIRERPPRLPRPRPRPESIPRP	0.089
RRIRIRPPRLPRPRPRPCISPRP	-0.32
RRIRFRPPRLPRPRPRPIAHPRP	-0.109
RRIRFRPPRLPRPRPRPLFCPRP	-0.462
RRIRGRPPRLPRPRPRPCYRPRP	-0.0861
RRIRCRPPRLPRPRPRPHLFPRP	-0.198
RRIRGRPPRLPRPRPRPDFFPRP	1.1
RRIRRRPPRLPRPRPRPQHIPRP	-0.338
RRIRLRPPRLPRPRPRPQHGPRP	-0.0844
RRIRTRPPRLPRPRPRPWKVPRP	-0.00663
RRIRIRPPRLPRPRPRPEMLPRP	-0.119
RRIRKRPPRLPRPRPRPHGGPRP	-0.0161
RRIRSRPPRLPRPRPRPYSVPRP	-0.582
RRIRGRPPRLPRPRPRPVGHPRP	0.453

Sequence	shrunken log2 fold change
RRIRSRPPRLPRPRPRPTYRPRP	-0.195
RRIRIRPPRLPRPRPRPMLIPRP	-0.21
RRIRMRPPRLPRPRPRPFKLPRP	0.102
RRIRHRPPRLPRPRPRPSRQPRP	0.212
RRIRFRPPRLPRPRPRPVCMPRP	-0.498
RRIRFRPPRLPRPRPRPLWLPRP	-0.0557
RRIRARPPRLPRPRPRPLKLPRP	-0.152
RRIRPRPPRLPRPRPRPRSTPRP	0.347
RRIRARPPRLPRPRPRPFVQPRP	-0.00645
RRIRSRPPRLPRPRPRPQARPRP	0.122
RRIRMRPPRLPRPRPRPCWEPRP	-0.0572
RRIRYRPPRLPRPRPRPYNMPRP	-1.09
RRIRRRPPRLPRPRPRPMGPPRP	0.135
RRIRQRPPRLPRPRPRPDRCPRP	0.298
RRIRPRPPRLPRPRPRPPHCPRP	0.388
RRIRTRPPRLPRPRPRPGLIPRP	-1.04
RRIRPRPPRLPRPRPRPAYDPRP	-0.26
RRIRARPPRLPRPRPRPKVRPRP	0.047
RRIRTRPPRLPRPRPRPWCFPRP	-0.046
RRIRSRPPRLPRPRPRPAKLPRP	0.195
RRIRLRPPRLPRPRPRPYDEPRP	-0.353
RRIRNRPPRLPRPRPRPCHHPRP	-1.21
RRIRARPPRLPRPRPRPSGMPRP	0.197
RRIRARPPRLPRPRPRPVCMPRP	0.226
RRIRLRPPRLPRPRPRPCTPPRP	-0.172

Sequence	shrunken log2 fold change
RRIRPRPPRLPRPRPRPMEYPRP	-0.00176
RRIRWRPPRLPRPRPRPGGSPRP	0.341
RRIRIRPPRLPRPRPRPLAHPRP	-0.379
RRIRIRPPRLPRPRPRPKTSPRP	-0.465
RRIRMRPPRLPRPRPRPFYMPRP	-0.054
RRIRPRPPRLPRPRPRPVVHPRP	-0.205
RRIRKRPPRLPRPRPRPYRRPRP	-0.105
RRIRRRPPRLPRPRPRPFNCPRP	-0.301
RRIRMRPPRLPRPRPRPFPPPRP	0.103
RRIRGRPPRLPRPRPRPLMFPRP	0.603
RRIRVRPPRLPRPRPRPLGFPRP	0.196
RRIRSRPPRLPRPRPRPRMMPRP	0.0975
RRIRNRPPRLPRPRPRPIDNPRP	-0.0163
RRIRNRPPRLPRPRPRPSDGPRP	0.0337
RRIRLRPPRLPRPRPRPGAAPRP	0.543
RRIRTRPPRLPRPRPRPFCGPRP	-0.0697
RRIRARPPRLPRPRPRPGNHPRP	-0.0331
RRIRDRPPRLPRPRPRPWDGPRP	-0.0761
RRIRYRPPRLPRPRPRPTDHPRP	-0.254
RRIRPRPPRLPRPRPRPALPPRP	1.63
RRIRSRPPRLPRPRPRPHYIPRP	-0.556
RRIRGRPPRLPRPRPRPGMTPRP	0.792
RRIRIRPPRLPRPRPRPPQSPRP	0.0652
RRIRPRPPRLPRPRPRPVFAPRP	0.155
RRIRPRPPRLPRPRPRPDKRPRP	0.00792

Sequence	shrunken log2 fold change
RRIRIRPPRLPRPRPRPITQPRP	-0.186
RRIRSRPPRLPRPRPRPPRHPRP	0.219
RRIRLRPPRLPRPRPRPPACPRP	0.448
RRIRYRPPRLPRPRPRPMSKPRP	3.29
RRIRYRPPRLPRPRPRPTRAPRP	0.144
RRIRTRPPRLPRPRPRPTGTPRP	-0.0721
RRIRDRPPRLPRPRPRPKMTPRP	0.093
RRIRDRPPRLPRPRPRPFSAPRP	-0.36
RRIRVRPPRLPRPRPRPWWDPRP	0.00445
RRIRLRPPRLPRPRPRPMHMPRP	-0.226
RRIRYRPPRLPRPRPRPKMLPRP	0.0981
RRIRCRPPRLPRPRPRPMGHPRP	-0.262
RRIRKRPPRLPRPRPRPTRGPRP	0.857
RRIRDRPPRLPRPRPRPSRPPRP	0.452
RRIRDRPPRLPRPRPRPQMPPRP	-0.486
RRIRQRPPRLPRPRPRPTRQPRP	0.798
RRIRPRPPRLPRPRPRPINSPRP	-0.236
RRIRMRPPRLPRPRPRPSGQPRP	0.602
RRIRMRPPRLPRPRPRPKDIPRP	-0.0934
RRIRHRPPRLPRPRPRPQWDPRP	-0.0406
RRIRKRPPRLPRPRPRPDRVPRP	-0.00884
RRIRTRPPRLPRPRPRPQVIPRP	-0.232
RRIRCRPPRLPRPRPRPSDKPRP	-0.207
RRIRLRPPRLPRPRPRPMVLPRP	-0.239
RRIRWRPPRLPRPRPRPEHPPRP	0.16

Sequence	shrunken log2 fold change
RRIRLRPPRLPRPRPRPSMAPRP	-0.0685
RRIRHRPPRLPRPRPRPKQQPRP	-0.0484
RRIRERPPRLPRPRPRPGRSPRP	-0.032
RRIRFRPPRLPRPRPRPDCMPRP	-0.286
RRIRVRPPRLPRPRPRPHTVPRP	-0.448
RRIRWRPPRLPRPRPRPSTCPRP	-0.457
RRIRNRPPRLPRPRPRPYYLPRP	-0.673
RRIRFRPPRLPRPRPRPVDNPRP	-0.0449
RRIRVRPPRLPRPRPRPIEVPRP	-0.141
RRIRQRPPRLPRPRPRPKHKPRP	-0.0629
RRIRIRPPRLPRPRPRPSPCPRP	-0.761
RRIRCRPPRLPRPRPRPAELPRP	0.0853
RRIRNRPPRLPRPRPRPGRTPRP	0.153
RRIRFRPPRLPRPRPRPAVVPRP	-0.231
RRIRNRPPRLPRPRPRPLSMPRP	-0.012
RRIRQRPPRLPRPRPRPAPCPRP	0.222
RRIRQRPPRLPRPRPRPRDRPRP	0.399
RRIRNRPPRLPRPRPRPEQNPRP	-0.21
RRIRGRPPRLPRPRPRPLLDPRP	2.07
RRIRFRPPRLPRPRPRPIYYPRP	-1.24
RRIRLRPPRLPRPRPRPFACPRP	0.119
RRIRERPPRLPRPRPRPATVPRP	-0.2
RRIRDRPPRLPRPRPRPLFDPRP	0.393
RRIRTRPPRLPRPRPRPPCQPRP	-0.215
RRIRARPPRLPRPRPRPMCKPRP	0.0809
